Bridge positions count the residues as written; N and C are the ends. Square brackets hold non-standard residues; d marks the D form. Peptide text beside a SMILES is read from it.
Tests used:
B16/F1 melanoma cells = test: Cellular internalization in B16/F1 melanoma cells; type: cell-based, murine
[1] = mouse, in vivo
[2] = system: B16/F1 melanoma-bearing C57 mouse; test: SPECT/CT melanoma imaging; type: in vivo; details: 2 h post-injection, approximately 6.7 MBq, one mouse
[3] = system: B16/F1 melanoma-bearing C57 mice; test: in vivo; details: C57, mouse, iv, 2 h
in vivo = test: in vivo; design: species or system mice; details: C57, mouse, iv, total radioactivity
MC1 receptor = details: read-out: MC1 receptor binding affinity; M21 melanoma cells; cited from earlier work
αvβ3 integrin receptor = details: relative to RGD-Lys-(Arg11)CCMSH; cited from earlier work
[4] = 0.037 MBq, Uptake ratio Tumor/Lung

Row | Structure (SMILES) | Activity internalized (B16/F1 melanoma cells; 20 min post incubation) [%] | Activity internalized (B16/F1 melanoma cells; after 2 h incubation) [%] | Transformed to a more lipophilic metabolite in urine [1] [%] | Visualization of flank melanoma tumors by SPECT/CT [2] | Bladder, percent injected dose [3] [%ID] | Blood, percent injected dose/gram [3] [%ID/g] | Bone, percent injected dose/gram [3] [%ID/g] | Heart, percent injected dose/gram [3] [%ID/g] | Kidneys, percent injected dose/gram [3] [%ID/g] | Lung, percent injected dose/gram [3] [%ID/g] | Muscle, percent injected dose/gram [3] [%ID/g] | Spleen, percent injected dose/gram [3] [%ID/g] | Stomach, percent injected dose/gram [3] [%ID/g] | tissue to tissue ratio at 0.5 h (in vivo; [4]) | tissue to tissue ratio at 2 h (in vivo; [4]) | tissue to tissue ratio at 4 h (in vivo; [4]) | tissue to tissue ratio at 24 h (in vivo; [4]) | tissue uptake dose at 2 h (in vivo; Bladder, percent injected dose) [%ID] | IC50 (MC1 receptor) [nM] | Decrease of αvβ3 integrin receptor binding affinity on switch from RGD to RAD (αvβ3 integrin receptor) [fold]
1 | CC(C)[C@H](NC(=O)[C@@H]1CCCN1C(=O)[C@H](CCCNC(=N)N)NC(=O)[C@H](CS)NC(=O)[C@H](Cc1c[nH]c2ccccc12)NC(=O)[C@H](CCCNC(=N)N)NC(=O)[C@@H](Cc1ccccc1)NC(=O)[C@H](Cc1c[nH]cn1)NC(=O)[C@H](CCC(=O)O)NC(=O)[C@H](CS)NC(=O)[C@H](CS)NC(=O)[C@H](CCCCN)NC(=O)[C@@H]1CC(=O)N[C@@H](CCCNC(=N)N)C(=O)N[C@@H](C)C(=O)N[C@@H](CC(=O)O)C(=O)N[C@H](Cc2ccc(O)cc2)C(=O)N1)C(N)=O [^99mTc-RAD-Lys-(Arg^11)CCMSH, metal not drawn] (RAD[dY]DKCCEH[dF]RWCRPV-NH2; lactam N-5; C-terminus assumed) | 59.20 ± 5.10 | 78.24 ± 1.13 | 18 | visualized clearly | 70.34 ± 3.28 | 0.44 ± 0.11 | 0.52 ± 0.31 | 0.30 ± 0.10 | 50.10 ± 18.56 | 0.78 ± 0.17 | 0.28 ± 0.30 | 0.50 ± 0.09 | 1.92 ± 0.24 | 4.26 | 22.9 | 39.1 | 31.9 | 69.54 ± 0.63 |  | 
2 | CC(C)[C@H](NC(=O)[C@@H]1CCCN1C(=O)[C@H](CCCNC(=N)N)NC(=O)[C@H](CS)NC(=O)[C@H](Cc1c[nH]c2ccccc12)NC(=O)[C@H](CCCNC(=N)N)NC(=O)[C@@H](Cc1ccccc1)NC(=O)[C@H](Cc1c[nH]cn1)NC(=O)[C@H](CCC(=O)O)NC(=O)[C@H](CS)NC(=O)[C@H](CS)NC(=O)[C@H](CCCCN)NC(=O)[C@@H]1CC(=O)N[C@@H](CCCNC(=N)N)C(=O)N[C@@H](C)C(=O)N[C@@H](CC(=O)O)C(=O)N[C@H](Cc2ccc(O)cc2)C(=O)N1)C(N)=O [RAD-Lys-(Arg^11)CCMSH] (RAD[dY]DKCCEH[dF]RWCRPV-NH2; lactam N-5; C-terminus assumed) |  |  |  |  |  |  |  |  |  |  |  |  |  |  |  |  |  |  | 0.3 | 248

Reference: PMC3274613 (Bioorganic & medicinal chemistry letters, 2012)
